Results on two molecules are retold here after patent US20240408202A1 (HEALTH RESEARCH, published 2024).

For test [1], the target named is T1, mouse CD3ε (mouse, UniProt P22646 22-189).
T1 construct: whole, on cells; The assay stained mouse T cells; also called mCD3e
Briefly: flow cytometry, BiTE supernatant on mouse T cells, anti-His tag detection. The text has this:
(§1) The DNA sequence corresponding to the G(EAAAK)3 (SEQ ID NO:9) linker ([…] (SEQ ID NO:8), followed by Mov19 scFv, 6× His Tag, Furin cleavage peptide, SGSG linker+P2A translational skipping sequence, and monomeric enhanced GFP (eGFP) reporter (to monitor transduction efficiency) was PCR amplified from an existing plasmid to generate overlapping DNA fragments amenable to assembly using NEBuilder (FIG. 7A). FR—B and FR-Bh sequences along with GFP reporter genes were inserted into the previously described retroviral vector¹ using NotI and PacI restriction sites, with DNA fragments assembled using NEBuilder HIFI DNA assembly (New England Biolabs). Plasmid sequences were confirmed by Sanger Sequencing, and retroviruses used to transduce human or mouse cells produced in PG13 or PLAT-E retroviral packaging cells lines, respectively. For murine studies, control T cells were either transduced with a retrovirus expressing a codon-optimized Luciferase (Luc2)-P2A-GFP gene and produced in PLAT-E cells or were Mock transduced. […] In all cases, cell culture supernatant from high-titer retrovirus producing clones was collected and used for viral transduction. For initial testing of BiTEs for antigen-specific binding, 293T cells were retrovirally transduced, followed by collection of 293T cell culture supernatants. […]
For orientation: A flow cytometer gives signals particle by particle.

The target of test [2] is T2, human CD3ε (human, UniProt P07766 23-207).
T2 construct: whole, on cells; The assay stained human T cells; also called hCD3e; CD3e
The experiment in a line: flow cytometry on human T cells, anti-His tag detection.
Source text: as §1

The target of test [3] is T3, human Folate Receptor alpha (FRα) (human, UniProt P15328 25-234).
T3 construct: whole, on cells; also called hFRα; hFRa
Briefly: flow cytometry, BiTE supernatant on IE9-mp1-hFRa cells, anti-His tag detection.
Source text: as §1

In test [4] the target is T1, mouse CD3ε. Briefly: flow cytometry on mouse CD8+ T cells, anti-His tag detection; staining control.
Source text: as §1

Test [5] deals with T2, human CD3ε. The experiment in a line: flow cytometry, BiTE supernatant on human T cells, anti-His tag detection.
Source text: as §1

The target in test [6] is T3, human Folate Receptor alpha (FRα). Briefly: flow cytometry, BiTE supernatant on FRα+ cancer cells, anti-His tag detection.
Source text: as §1

T3 sequence (P15328 25-234): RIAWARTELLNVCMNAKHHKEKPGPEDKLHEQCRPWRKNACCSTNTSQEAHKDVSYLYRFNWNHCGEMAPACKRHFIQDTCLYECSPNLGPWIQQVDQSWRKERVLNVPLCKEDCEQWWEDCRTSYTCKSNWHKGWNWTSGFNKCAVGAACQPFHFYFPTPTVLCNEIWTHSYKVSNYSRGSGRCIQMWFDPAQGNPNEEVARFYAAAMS
T2 sequence (P07766 23-207): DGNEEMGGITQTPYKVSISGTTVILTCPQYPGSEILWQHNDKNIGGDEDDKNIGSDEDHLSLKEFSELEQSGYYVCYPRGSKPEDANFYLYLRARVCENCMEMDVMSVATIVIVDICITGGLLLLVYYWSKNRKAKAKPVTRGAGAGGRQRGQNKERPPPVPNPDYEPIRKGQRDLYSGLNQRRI
T1 sequence (P22646 22-189): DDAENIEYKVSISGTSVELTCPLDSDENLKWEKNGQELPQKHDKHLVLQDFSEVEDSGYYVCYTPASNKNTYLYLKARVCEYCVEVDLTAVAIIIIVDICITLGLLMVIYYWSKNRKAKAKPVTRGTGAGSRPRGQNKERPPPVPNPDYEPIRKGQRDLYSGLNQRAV

B1: FR-B, mouse FRα targeted BiTE (mCD3e scFv 145-2C11 x hFRα scFv MOv19), chimeric BiTE (bispecific antibody)
chain: GEVQLVESGGGLVQPGKSLKLSCEASGFTFSGYGMHWVRQAPGRGLESVAYITSSSINIKYADAVKGRFTVSRDNAKNLLFLQMNILKSEDTAMYYCARFDWDKNYWGQGTMVTVSSGGGGSGGGGSGGGGSDIQMTQSPSSLPASLGDRVTINCQASQDISNYLNWYQQKPGKAPKLLIYYTNKLADGVPSRFSGSGSGRDSSFTISSLESEDIGSYYCQQYYNYPWTFGPGTKLEIKGEAAAKEAAAKEAAAKDIELTQSPASLAVSLGQRAIISCKASQSVSFAGTSLMHWYHQKPGQQPKLLIYRASNLEAGVPTRFSGSGSKTDFTLNIHPVEEEDAATYYCQQSREYPYTFGGGTKLEIKGSTSGSGKSSEGKGQVQLQQSGAELVKPGASVKISCKASGYSFTGYFMNWVKQSHGKSLEWIGRIHPYDGDTFYNQNFKDKATLTVDKSSNTAHMELLSLTSEDFAVYYCTRYDGSRAMDYWGQGTTVTVSSGSGHHHHHH
notes: also called CONT-ENG; Cont-ENG
B1: the binding result in test [1] is listed as “binds”; in test [2], “no binding”; in test [3] it was “binds”.

B2: FR-Bh, human FRα targeted BiTE (hCD3e scFv UCHT1 x hFRα scFv MOv19) (bispecific antibody)
chain: GMDIQMTQTTSSLSASLGDRVTISCRASQDIRNYLNWYQQKPDGTVKLLIYYTSRLHSGVPSKFSGSGSGTDYSLTISNLEQEDIATYFCQQGNTLPWTFAGGTKLEIKGGGGSGGGGSGGGGSGGGGSEVQLQQSGPELVKPGASMKISCKASGYSFTGYTMNWVKQSHGKNLEWMGLINPYKGVSTYNQKFKDKATLTVDKSSSTAYMELLSLTSEDSAVYYCARSGYYGDSDWYFDVWGQGTTLTVFSGEAAAKEAAAKEAAAKDIELTQSPASLAVSLGQRAIISCKASQSVSFAGTSLMHWYHQKPGQQPKLLIYRASNLEAGVPTRFSGSGSKTDFTLNIHPVEEEDAATYYCQQSREYPYTFGGGTKLEIKGSTSGSGKSSEGKGQVQLQQSGAELVKPGASVKISCKASGYSFTGYFMNWVKQSHGKSLEWIGRIHPYDGDTFYNQNFKDKATLTVDKSSNTAHMELLSLTSEDFAVYYCTRYDGSRAMDYWGQGTTVTVSSGSGHHHHHH
notes: also called FRα-specific BiTE
In the case of B2, the binding result in test [4] is “no binding”; in test [5], “binds”; in test [6], “binds”.
